Biological target: the molecule itself
Experiment: SEC

B1: Rv0203-notag (natural protein)
chain: AMAASDPCAASEVARTVGSVAKSMGDYLDSHPETNQVMTAVLQQQVGPGSVASLKAHFEANPKVASDLHALSQPLTDLSTRCSLPISGLQAIGLMQAVQGARR
- stoichiometry N: 2
